Positions count from the first letter of the chain named. Where no end group is shown, it is not given here.
T1: 6×His-ZYG-1 CPB K454E (C. elegans, UniProt Q9GT24 338-564, K454E)
T1 sequence (looked up): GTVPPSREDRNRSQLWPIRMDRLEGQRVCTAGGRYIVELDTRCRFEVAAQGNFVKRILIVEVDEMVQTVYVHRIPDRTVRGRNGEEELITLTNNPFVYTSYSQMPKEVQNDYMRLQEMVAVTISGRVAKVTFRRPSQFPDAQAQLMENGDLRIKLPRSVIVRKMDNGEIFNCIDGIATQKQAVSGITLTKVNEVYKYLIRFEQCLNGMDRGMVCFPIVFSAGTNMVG

B1: ZYG-1 cryptic polo box (CPB), aa 338-564 (domain or fragment, C. elegans, UniProt Q9GT24 338-564, looked up)
chain: T1 sequence (looked up) with E117K
modifications: for crystallization: selenomethionine-substituted, lysine methylated; for MST: labelled with Monolith NT.115 Labeling Kit RED-NHS
B2: Drosophila Plk4 cryptic polo box (DmPlk4 CPB), aa 383-601 (domain or fragment, UniProt O97143 383-601, looked up)
chain: RISVPPLNTKRLLPTRYKTKNAIMSILRNGEVVLEFLKFRPTYNEDRINDICRISDDGQRIIIYQPDPGRGLPVREQPPDLQIPSGDCVYNYDNLPSKHWKKYIYGARFVGLVKSKTPKVTYFSTLGKCQLMETMTDFEIRFYSGAKLLKTPSEGLKVYDRNGMLLSDYSCSESRSLIEHGNECFTHCVNISNALEVAQTKDNSCFPVTIGRRPITDVQ
modifications: for crystallization: lysine methylated; for MST: labelled with Monolith NT.115 Labeling Kit RED-NHS

What was measured:
SAXS = biological target: the molecule itself; assay: SAXS
6×His-ZYG-1 CPB K454E = biological target: T1, 6×His-ZYG-1 CPB K454E; assay: pull-down

| Binder | stoichiometry N (SAXS) | binding result (6×His-ZYG-1 CPB K454E) |
| --- | --- | --- |
| B1 | 2 | – |
| MEDDAPMNLCNEQFEEIEDSPIDDNDNESFYNADGDVELEEEEVHE (domain or fragment, C. elegans, UniProt P91870 1-46, looked up, also: MBP fusion) [MBP-CeSPD-2 AR (aa 1-46), WT] | – | binds |
| B2 | 2 | – |
